Reference: US20150344535A1, “NEUROTROPHIN-TYROSINE KINASE RECEPTOR SIGNALING” (THE UNIVERSITY OF QUEENSLAND, priority 2012, published 2015)

Key:
[1] = target: TrkAK538A; test: cell-based or functional assay
[2] = target: TrkA endogenously expressed in PC12 cells (UniProt P35739); test: cell-based or functional assay
Sequence of TrkA endogenously expressed in PC12 cells (P35739 33-799 limits assumed): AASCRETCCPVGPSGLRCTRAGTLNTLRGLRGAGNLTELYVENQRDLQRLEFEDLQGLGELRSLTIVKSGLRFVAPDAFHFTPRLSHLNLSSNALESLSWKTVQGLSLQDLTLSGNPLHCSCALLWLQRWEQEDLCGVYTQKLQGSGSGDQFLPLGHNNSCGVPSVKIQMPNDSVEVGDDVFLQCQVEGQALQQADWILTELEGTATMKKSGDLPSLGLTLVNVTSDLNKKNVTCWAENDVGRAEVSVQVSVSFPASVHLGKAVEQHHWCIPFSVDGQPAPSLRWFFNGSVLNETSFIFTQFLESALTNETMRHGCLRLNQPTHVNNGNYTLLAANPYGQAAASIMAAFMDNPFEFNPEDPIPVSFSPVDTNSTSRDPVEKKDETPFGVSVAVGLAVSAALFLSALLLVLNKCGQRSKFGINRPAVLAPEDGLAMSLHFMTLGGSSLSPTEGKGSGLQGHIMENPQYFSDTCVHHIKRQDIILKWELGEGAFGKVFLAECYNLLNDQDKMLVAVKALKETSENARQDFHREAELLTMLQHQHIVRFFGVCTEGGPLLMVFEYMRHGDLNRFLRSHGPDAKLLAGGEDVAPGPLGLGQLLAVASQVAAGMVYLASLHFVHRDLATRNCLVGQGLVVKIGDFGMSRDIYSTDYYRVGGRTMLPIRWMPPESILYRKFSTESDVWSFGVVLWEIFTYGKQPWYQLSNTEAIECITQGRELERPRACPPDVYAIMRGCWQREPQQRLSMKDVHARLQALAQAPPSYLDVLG

neurite outgrowth of PC12 cells co-expressing p75^ICD and TrkAK538A after NGF treatment [1]: 10 to 40 µm
neurite outgrowth of PC12 cells overexpressing the construct, 100 ng/ml NGF, 5 days [2]: 60%
Substance: p75^ICD-YFP (from UniProt P08138 273-427) (receptor)
